Our source for the average RLU values is patent publication US20150011431A1.

The target of the assay is CXCR1 (UniProt P25024). As to the kind of experiment: cell-based or functional assay.
Sequence of CXCR1 (P25024 whole entry): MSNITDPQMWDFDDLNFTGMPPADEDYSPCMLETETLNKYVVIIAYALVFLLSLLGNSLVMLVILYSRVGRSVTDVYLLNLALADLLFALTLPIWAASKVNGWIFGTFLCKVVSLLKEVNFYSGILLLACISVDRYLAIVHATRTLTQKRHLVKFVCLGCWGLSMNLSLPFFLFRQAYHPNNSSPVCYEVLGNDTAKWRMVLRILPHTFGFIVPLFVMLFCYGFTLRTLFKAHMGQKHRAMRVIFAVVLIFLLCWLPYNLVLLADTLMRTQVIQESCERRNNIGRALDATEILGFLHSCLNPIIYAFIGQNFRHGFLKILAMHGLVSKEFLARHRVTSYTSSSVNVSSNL

Sequence of IL-8 (soluble cytokine) (P10145 28-99 limits assumed): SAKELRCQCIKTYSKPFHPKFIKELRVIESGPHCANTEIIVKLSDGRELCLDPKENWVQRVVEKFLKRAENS

The substance “IgG VH4-4 CDR3 BsaI (lacking the IL-8 insert) (antibody)” displayed an average RLU at 0.001 nM IgG (beta-arrestin recruitment reporter, CXCR1-U2OS cells) of 7500 RLU; an average RLU at 0.004 nM IgG (beta-arrestin recruitment reporter, CXCR1-U2OS cells) of 7390 RLU; an average RLU at 0.013 nM IgG (beta-arrestin recruitment reporter, CXCR1-U2OS cells) of 7050 RLU; an average RLU at 0.040 nM IgG (beta-arrestin recruitment reporter, CXCR1-U2OS cells) of 6970 RLU. The substance further came in with an average RLU at 0.120 nM IgG (beta-arrestin recruitment reporter, CXCR1-U2OS cells) of 7330 RLU; an average RLU at 0.359 nM IgG (beta-arrestin recruitment reporter, CXCR1-U2OS cells) of 6690 RLU; an average RLU at 1.076 nM IgG (beta-arrestin recruitment reporter, CXCR1-U2OS cells) of 7180 RLU; an average RLU at 3.228 nM IgG (beta-arrestin recruitment reporter, CXCR1-U2OS cells) of 7030 RLU. Further, the average RLU at 9.685 nM IgG (beta-arrestin recruitment reporter, CXCR1-U2OS cells) was 7170 RLU; the average RLU at 29.056 nM IgG (beta-arrestin recruitment reporter, CXCR1-U2OS cells) is 7100 RLU; the average RLU at 87.167 nM IgG (beta-arrestin recruitment reporter, CXCR1-U2OS cells) amounted to 7140 RLU; the average RLU at 261.500 nM IgG (beta-arrestin recruitment reporter, CXCR1-U2OS cells) was determined as 7540 RLU.

Substance “IL-8 (soluble cytokine) (from UniProt P10145 28-99) (ligand)” gave an average RLU at 0.01 nM (beta-arrestin recruitment reporter, CXCR1-U2OS cells) of 440 RLU; an average RLU at 0.08 nM (beta-arrestin recruitment reporter, CXCR1-U2OS cells) of 504 RLU; an average RLU at 0.23 nM (beta-arrestin recruitment reporter, CXCR1-U2OS cells) of 940 RLU; an average RLU at 0.69 nM (beta-arrestin recruitment reporter, CXCR1-U2OS cells) of 1940 RLU. The same substance had an average RLU at 2.06 nM (beta-arrestin recruitment reporter, CXCR1-U2OS cells) of 4110 RLU; an average RLU at 6.17 nM (beta-arrestin recruitment reporter, CXCR1-U2OS cells) of 5870 RLU; an average RLU at 18.52 nM (beta-arrestin recruitment reporter, CXCR1-U2OS cells) of 7300 RLU; an average RLU at 31.5 nM (beta-arrestin recruitment reporter, CXCR1-U2OS cells) of 55500 RLU. In addition, the average RLU at 55.56 nM (beta-arrestin recruitment reporter, CXCR1-U2OS cells) is 7360 RLU; the average RLU at 166.67 nM (beta-arrestin recruitment reporter, CXCR1-U2OS cells) turned out to be 6770 RLU; the average RLU at 500.00 nM (beta-arrestin recruitment reporter, CXCR1-U2OS cells) is 5720 RLU.
